Source: patent publication US20240360223A1

What was measured:
[1] = target: poly-specificity reagent (PSR); experiment: flow cytometry PSR assay: test article on Protein A beads, biotinylated PSR, read-out with SA-PE
[2] = target: poly-specificity reagent (PSR); experiment: flow cytometry PSR assay: test article on protein A beads, biotinylated PSR detected with streptavidin-PE
[3] = target: poly-specificity reagent (PSR); experiment: PSR assay: protein on protein A coated beads, biotinylated PSR, SA-PE, flow cytometry; + PSR panel (Q2 is 0 in the No PSR panel FIG. 43E)

Substance	% of events in Q2 (Expression-FITC positive, Binding-PE positive), + PSR [1]	% of events in Q2 (Expression-FITC positive, Binding-PE positive), + PSR [2]	% of beads in quadrant Q2 (Binding-PE positive), + PSR [3]
Rituximab (antibody)	56.2%	–	–
trastuzumab (antibody)	0.087%	0.067%	–
Ixekuzumab (antibody)	–	–	27.1%

Other lines, results leading:

% of events in Q2 (Expression-FITC positive, Binding-PE positive), + PSR [1]	% of events in Q2 (Expression-FITC positive, Binding-PE positive), + PSR [2]	% of beads in quadrant Q2 (Binding-PE positive), + PSR [3]	Substance
79.6%	–	–	Ixekizumab (antibody)
–	79.6%	–	Ixekizumab (PSR positive control) (antibody)
